This is an account of results in article PMC4425475.

In general, stoichiometry N refers to the number of molecules, sites or subunits per partner or assembly.

The target in experiment [1] is sFlaF-L101Y (S. acidocaldarius). Description: SEC. For orientation: In gel filtration, larger molecules generally elute earlier.
In experiment [2] the target is sFlaF (soluble FlaF, Δ34FlaF, residues 35-164 with an N-terminal His-tag) (S. acidocaldarius). The experiment can be described thus: SAXS.
The target of experiment [3] is S-layer isolated from S. acidocaldarius strain MW001 (WT) (S. acidocaldarius (endogenous in MW001)) (UniProt Q4J6E5). The experiment can be described thus: co-sedimentation.
For experiment [4], the target named is sFlaF-R161A (S. acidocaldarius). Description: SEC.

Substance sFlaF-L101Y (domain or fragment) came in with a stoichiometry N in experiment [1] of 2. Take “sFlaF (soluble FlaF, Δ34FlaF, residues 35-164 with an N-terminal His-tag) (domain or fragment)”: the stoichiometry N in experiment [2] came to 2. This substance returned a percent bound in experiment [3] of 50%. With sFlaF-R161A (domain or fragment), the stoichiometry N in experiment [4] was found to be 2.
